Stoichiometry N data for one substance are collected here from PMC4151996.

This test addresses AcHNL, hydroxynitrile lyase from Acidobacterium capsulatum ATCC 51196 (Acidobacterium capsulatum ATCC 51196). Description: SEC. A general note: In gel filtration, larger molecules generally elute earlier.

In general, stoichiometry N refers to the number of molecules, sites or subunits per partner or assembly. “AcHNL, hydroxynitrile lyase from Acidobacterium capsulatum ATCC 51196 (enzyme)” gave a stoichiometry N of 4.
